According to article PMC5916551:

Target: Transforming growth factor β1 (TGFβ1) (human) (UniProt P01137)
Assay: SPR

UniProt P01137, sequence (P01137 279-390): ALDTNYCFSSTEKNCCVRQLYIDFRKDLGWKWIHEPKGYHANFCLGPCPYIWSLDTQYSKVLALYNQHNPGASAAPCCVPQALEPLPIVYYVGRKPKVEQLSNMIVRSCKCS

Kd: 139 nM
Substance: Metelimumab (CAT192 IgG4) (antibody)
